Test system: bovine brain microvessel endothelial cells (BBMECs)
Experiment: Metabolism of Dyn A 1–17 in the presence of BBMECs
Assay type: in vitro ADME
Conditions: incubation with bovine brain microvessel endothelial cells, LC-MS/MS

With Dynorphin A 1–17 [Dyn A 1–17] the “metabolite identified in the presence of BBMECs” value was “Dyn A 1–6 is identified as a metabolite”.
